Reference: paper PMC4417118 (Genome Research, 2015)

B1: His-CRMP1 (collapsin response mediator protein 1, wild type) (natural protein)
chain: not shown
B2: His-CRMP1-D408V (natural protein)
chain: not shown

Biological target: the molecule itself
Test: native gel or EMSA

Protein	stoichiometry N
B1	4
B2	4
